Conditions: Homo sapiens; pH 2.7; Thermal; DSC; Gly-HCl 0.05 M; whole UniProt chain shown

B1: Lysozyme C wild type, P61626 (protein)
chain: MKALIVLGLVLLSVTVQGKVFERCELARTLKRLGMDGYRGISLANWMCLAKWESGYNTRATNYNAGDRSTDYGIFQINSRYWCNDGKTPGAVNACHLSCSALLQDNIADAVACAKRVVRDPQGIRAWVAWRNRCQNRDVRQYVQGCGV
Question: With B1 as the protein, how does the Tm read?
Answer: 64.9 °C

Question: And the “heat capacity change of unfolding” value?
Answer: 1.58 kcal/mol/K

Question: And the “unfolding enthalpy (calorimetric)” value?
Answer: 114 kcal/mol
